Data reported in the supplement of paper PMC9112550, “Optimization of the antimicrobial peptide Bac7 by deep mutational scanning” (BMC Biology, 2022).

These sequences were tested on Escherichia coli TOP10 (assay: shrunken log2 fold change of peptide-encoding DNA abundance (4.5 h post-induction vs induction); higher = less antimicrobial activity (less host growth inhibition)). Settings: time post-induction: 4.5 h; library: site-saturation at positions 5, 18, 19, 20.
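Further: peptides expressed intracellularly from a pBAD plasmid library in pooled LB shake-flask culture, induced with 0.3% L-arabinose, DNA abundance read by NGS, three biological replicates, DESeq2 with apeglm shrinkage.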

Sequence	shrunken log2 fold change
RRIRWRPPRLPRPRPRPKQTPRP	0.578
RRIRWRPPRLPRPRPRPKSGPRP	-0.0248
RRIRWRPPRLPRPRPRPKSIPRP	-0.017
RRIRWRPPRLPRPRPRPKSRPRP	-0.0202
RRIRWRPPRLPRPRPRPKTTPRP	-0.0128
RRIRWRPPRLPRPRPRPKVFPRP	-0.00123
RRIRWRPPRLPRPRPRPKYKPRP	-0.558
RRIRWRPPRLPRPRPRPLCNPRP	0.0306
RRIRWRPPRLPRPRPRPLCSPRP	0.13
RRIRWRPPRLPRPRPRPLCWPRP	0.513
RRIRWRPPRLPRPRPRPLDEPRP	0.53
RRIRWRPPRLPRPRPRPLDMPRP	0.14
RRIRWRPPRLPRPRPRPLDQPRP	-0.0549
RRIRWRPPRLPRPRPRPLDVPRP	0.00856
RRIRWRPPRLPRPRPRPLEKPRP	0.429
RRIRWRPPRLPRPRPRPLFCPRP	0.22
RRIRWRPPRLPRPRPRPLFMPRP	-0.286
RRIRWRPPRLPRPRPRPLGRPRP	0.424
RRIRWRPPRLPRPRPRPLHCPRP	-0.444
RRIRWRPPRLPRPRPRPLIMPRP	-0.0185
RRIRWRPPRLPRPRPRPLLKPRP	-0.0261
RRIRWRPPRLPRPRPRPLMYPRP	-0.0465
RRIRWRPPRLPRPRPRPLNGPRP	-0.0406
RRIRWRPPRLPRPRPRPLPCPRP	0.118
RRIRWRPPRLPRPRPRPLQLPRP	0.0501

Sequence	shrunken log2 fold change
RRIRWRPPRLPRPRPRPLRYPRP	-0.0913
RRIRWRPPRLPRPRPRPLVGPRP	0.282
RRIRWRPPRLPRPRPRPLVQPRP	0.23
RRIRWRPPRLPRPRPRPLYLPRP	-0.5
RRIRWRPPRLPRPRPRPMARPRP	0.00968
RRIRWRPPRLPRPRPRPMCIPRP	-0.102
RRIRWRPPRLPRPRPRPMCRPRP	-0.117
RRIRWRPPRLPRPRPRPMCSPRP	0.197
RRIRWRPPRLPRPRPRPMENPRP	0.0913
RRIRWRPPRLPRPRPRPMFDPRP	0.139
RRIRWRPPRLPRPRPRPMGPPRP	0.041
RRIRWRPPRLPRPRPRPMGVPRP	-0.00743
RRIRWRPPRLPRPRPRPMHAPRP	0.542
RRIRWRPPRLPRPRPRPMIFPRP	-0.302
RRIRWRPPRLPRPRPRPMKMPRP	-0.0851
RRIRWRPPRLPRPRPRPMKWPRP	0.0452
RRIRWRPPRLPRPRPRPMNYPRP	-0.364
RRIRWRPPRLPRPRPRPMRFPRP	0.00175
RRIRWRPPRLPRPRPRPMTQPRP	0.0159
RRIRWRPPRLPRPRPRPMVIPRP	-0.14
RRIRWRPPRLPRPRPRPMVLPRP	-0.243
RRIRWRPPRLPRPRPRPMWIPRP	0.135
RRIRWRPPRLPRPRPRPMYTPRP	0.0906
RRIRWRPPRLPRPRPRPNAEPRP	0.181
RRIRWRPPRLPRPRPRPNALPRP	0.15

Sequence	shrunken log2 fold change
RRIRWRPPRLPRPRPRPNAQPRP	-0.0306
RRIRWRPPRLPRPRPRPNDAPRP	0.0398
RRIRWRPPRLPRPRPRPNDGPRP	-0.00211
RRIRWRPPRLPRPRPRPNEQPRP	-0.00804
RRIRWRPPRLPRPRPRPNFPPRP	0.0284
RRIRWRPPRLPRPRPRPNHAPRP	0.601
RRIRWRPPRLPRPRPRPNLDPRP	0.278
RRIRWRPPRLPRPRPRPNLQPRP	0.0402
RRIRWRPPRLPRPRPRPNLVPRP	-0.0198
RRIRWRPPRLPRPRPRPNLWPRP	0.587
RRIRWRPPRLPRPRPRPNNSPRP	-0.723
RRIRWRPPRLPRPRPRPNPPPRP	0.206
RRIRWRPPRLPRPRPRPNPSPRP	0.219
RRIRWRPPRLPRPRPRPNQEPRP	-0.119
RRIRWRPPRLPRPRPRPNREPRP	-0.0677
RRIRWRPPRLPRPRPRPNRPPRP	0.078
RRIRWRPPRLPRPRPRPNRWPRP	0.218
RRIRWRPPRLPRPRPRPNRYPRP	0.0333
RRIRWRPPRLPRPRPRPNSDPRP	-0.258
RRIRWRPPRLPRPRPRPNSGPRP	0.0642
RRIRWRPPRLPRPRPRPNYIPRP	-0.57
RRIRWRPPRLPRPRPRPNYYPRP	-0.705
RRIRWRPPRLPRPRPRPPCHPRP	0.0912
RRIRWRPPRLPRPRPRPPCRPRP	-0.0876
RRIRWRPPRLPRPRPRPPENPRP	0.0933

Sequence	shrunken log2 fold change
RRIRWRPPRLPRPRPRPPIHPRP	-0.448
RRIRWRPPRLPRPRPRPPIVPRP	0.19
RRIRWRPPRLPRPRPRPPKLPRP	0.152
RRIRWRPPRLPRPRPRPPLLPRP	0.395
RRIRWRPPRLPRPRPRPPLYPRP	0.188
RRIRWRPPRLPRPRPRPPMIPRP	-0.103
RRIRWRPPRLPRPRPRPPPEPRP	0.822
RRIRWRPPRLPRPRPRPPPFPRP	0.22
RRIRWRPPRLPRPRPRPPPVPRP	0.931
RRIRWRPPRLPRPRPRPPQVPRP	0.35
RRIRWRPPRLPRPRPRPPRFPRP	0.326
RRIRWRPPRLPRPRPRPPSAPRP	0.744
RRIRWRPPRLPRPRPRPPVEPRP	0.392
RRIRWRPPRLPRPRPRPPVTPRP	0.283
RRIRWRPPRLPRPRPRPPWFPRP	0.218
RRIRWRPPRLPRPRPRPPWKPRP	0.24
RRIRWRPPRLPRPRPRPPWRPRP	0.696
RRIRWRPPRLPRPRPRPQACPRP	0.145
RRIRWRPPRLPRPRPRPQAFPRP	0.0509
RRIRWRPPRLPRPRPRPQCKPRP	0.132
RRIRWRPPRLPRPRPRPQDGPRP	0.0557
RRIRWRPPRLPRPRPRPQEDPRP	-0.0221
RRIRWRPPRLPRPRPRPQEWPRP	0.248
RRIRWRPPRLPRPRPRPQFRPRP	-0.0234
RRIRWRPPRLPRPRPRPQFVPRP	-0.1

Sequence	shrunken log2 fold change
RRIRWRPPRLPRPRPRPQGMPRP	-0.225
RRIRWRPPRLPRPRPRPQHLPRP	-0.678
RRIRWRPPRLPRPRPRPQIAPRP	0.141
RRIRWRPPRLPRPRPRPQLPPRP	-0.00654
RRIRWRPPRLPRPRPRPQPHPRP	0.134
RRIRWRPPRLPRPRPRPQPNPRP	0.127
RRIRWRPPRLPRPRPRPQPYPRP	-0.166
RRIRWRPPRLPRPRPRPQQHPRP	-0.056
RRIRWRPPRLPRPRPRPQSFPRP	-0.108
RRIRWRPPRLPRPRPRPQSGPRP	0.186
RRIRWRPPRLPRPRPRPQTEPRP	0.0468
RRIRWRPPRLPRPRPRPQWAPRP	0.829
RRIRWRPPRLPRPRPRPQYAPRP	-0.0905
RRIRWRPPRLPRPRPRPRADPRP	0.667
RRIRWRPPRLPRPRPRPRDNPRP	0.0559
RRIRWRPPRLPRPRPRPRDWPRP	0.958
RRIRWRPPRLPRPRPRPREDPRP	0.532
RRIRWRPPRLPRPRPRPRFKPRP	0.0187
RRIRWRPPRLPRPRPRPRFNPRP	0.0235
RRIRWRPPRLPRPRPRPRHGPRP	-0.192
RRIRWRPPRLPRPRPRPRHRPRP	0.138
RRIRWRPPRLPRPRPRPRHWPRP	0.0523
RRIRWRPPRLPRPRPRPRKIPRP	0.491
RRIRWRPPRLPRPRPRPRKNPRP	0.0168
RRIRWRPPRLPRPRPRPRMGPRP	0.357

Sequence	shrunken log2 fold change
RRIRWRPPRLPRPRPRPRNTPRP	-0.0542
RRIRWRPPRLPRPRPRPRPYPRP	0.0357
RRIRWRPPRLPRPRPRPRRHPRP	0.559
RRIRWRPPRLPRPRPRPRSPPRP	0.779
RRIRWRPPRLPRPRPRPRTEPRP	0.225
RRIRWRPPRLPRPRPRPRTQPRP	0.276
RRIRWRPPRLPRPRPRPRVCPRP	0.347
RRIRWRPPRLPRPRPRPRVNPRP	0.478
RRIRWRPPRLPRPRPRPSAMPRP	0.252
RRIRWRPPRLPRPRPRPSCKPRP	-0.183
RRIRWRPPRLPRPRPRPSCTPRP	-0.11
RRIRWRPPRLPRPRPRPSDAPRP	0.191
RRIRWRPPRLPRPRPRPSDQPRP	0.138
RRIRWRPPRLPRPRPRPSEDPRP	0.145
RRIRWRPPRLPRPRPRPSEVPRP	-0.0251
RRIRWRPPRLPRPRPRPSFAPRP	0.28
RRIRWRPPRLPRPRPRPSGIPRP	0.146
RRIRWRPPRLPRPRPRPSHDPRP	0.023
RRIRWRPPRLPRPRPRPSIDPRP	0.452
RRIRWRPPRLPRPRPRPSIIPRP	-0.31
RRIRWRPPRLPRPRPRPSKFPRP	-0.0435
RRIRWRPPRLPRPRPRPSKIPRP	-0.152
RRIRWRPPRLPRPRPRPSLMPRP	0.122
RRIRWRPPRLPRPRPRPSMCPRP	-0.16
RRIRWRPPRLPRPRPRPSNIPRP	-0.699
